How the values were obtained:
[1] = target: human CD3 (human, UniProt P07766 23-207); assay: cell-based or functional assay
[2] = target: cynomolgus CD33 (cynomolgus); assay: flow cytometry KDs on CHO cells, cyno CD33 / human CD33

human CD3, sequence (P07766 23-207): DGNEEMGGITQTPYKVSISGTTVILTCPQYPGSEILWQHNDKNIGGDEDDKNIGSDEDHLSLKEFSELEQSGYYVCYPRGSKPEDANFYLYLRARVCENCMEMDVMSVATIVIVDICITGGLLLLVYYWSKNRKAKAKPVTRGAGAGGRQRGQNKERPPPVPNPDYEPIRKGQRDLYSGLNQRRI

Row | Binder | T cell Proliferation in PBMC EC50 [1] [nM] | KD ratio CynoCD33/huCD33 [2]
1 | CD33/CD3 tandem diabody 17 (bispecific antibody) DIQMTQSPSSLSASVGDRVTITCRSSTGAVTTSNYANWVQQKPGKAPKALIGGTNKRAPGVPSRFSGSLIGDKATLTISSLQPEDFATYYCALWYSNLWVFGQGTKVEIKGGSGGSQVQLVQSGAEVKKPGESLKISCKGSGYSFTSYWIGWVRQMPGKGLEWMGIIYPGDSDTRYSPSFQGQVTISADKSISTAYLQWSSLKASDTAMYYCARHKRGSDAFDIWGQGTTVTVSSGGSGQSVLTQPPSVSGAPGQRVTISCTGSSSNIGAGYDVHWYQQLPGTAPKLLIYGNSNRPSGVPDRFSGSKSGTSASLAITGLQAEDEADYYCQSYDSSLSDVVFGGGTKLTVLGGSGGSEVQLVESGGGLVQPGGSLRLSCAASGFTFSTYAMNWVRQAPGKGLEWVGRIRSKYNNYATYYADSVKDRFTISRDDSKNSLYLQMNSLKTEDTAVYYCARHGNFGNSYVSYFAYWGQGTLVTVSSAAAGSHHHHHH | – | 1.9
2 | CD33/CD3 tandem diabody 18 (bispecific antibody) EVQLVESGGGLVQPGGSLRLSCAASGFTFSTYAMNWVRQAPGKGLEWVGRIRSKYNNYATYYADSVKDRFTISRDDSKNSLYLQMNSLKTEDTAVYYCARHGNFGNSYVSYFAYWGQGTLVTVSSGGSGGSQSVLTQPPSVSGAPGQRVTISCTGSSSNIGAGYDVHWYQQLPGTAPKLLIYGNSNRPSGVPDRFSGSKSGTSASLAITGLQAEDEADYYCQSYDSSLSDVVFGGGTKLTVLGGSGQVQLVQSGAEVKKPGESLKISCKGSGYSFTSYWIGWVRQMPGKGLEWMGIIYPGDSDTRYSPSFQGQVTISADKSISTAYLQWSSLKASDTAMYYCARHKRGSDAFDIWGQGTTVTVSSGGSGGSDIQMTQSPSSLSASVGDRVTITCRSSTGAVTTSNYANWVQQKPGKAPKALIGGTNKRAPGVPSRFSGSLIGDKATLTISSLQPEDFATYYCALWYSNLWVFGQGTKVEIKAAAGSHHHHHH | – | 3.1

Other lines, results leading:

Row | T cell Proliferation in PBMC EC50 [1] [nM] | KD ratio CynoCD33/huCD33 [2] | Binder
3 | 0.038 | 33.8 | CD33/CD3 tandem diabody 20 (bispecific antibody) DIQMTQSPSSLSASVGDRVTITCRSSTGAVTTSNYANWVQQKPGKAPKGLIGGTNKRAPGVPSRFSGSLIGTDFTLTISSLQPEDFATYYCALWYSNLWVFGQGTKVEIKGGSGGSQVQLVQSGAEVKKPGASVKVSCKASGYTFTSYYMHWVRQAPGQGLEWMGIINPSGGSTSYAQKFQGRVTMTRDTSTSTVYMELSSLRSEDTAVYYCARDVVPAAIDYYGMDVWGQGTTVTVSSGGSGQSVLTQPPSASGTPGQRVTISCSGSSSNIGSNTVNWYQQLPGTAPKLLIYSDNQRPSGVPDRFSGSKSGSSASLAISGLQSDDEADYYCATWDDSLNGAVFGGGTKLTVLGGSGGSEVQLVESGGGLVQPGGSLRLSCAASGFTFSTYAMNWVRQAPGKGLEWVGRIRSKYNNYATYYADSVKDRFTISRDDSKNSLYLQMNSLKTEDTAVYYCARHGNFGNSYVSWFAYWGQGTLVTVSS
4 | – | 37.3 | CD33/CD3 tandem diabody 19 (bispecific antibody) DIQMTQSPSSLSASVGDRVTITCRSSTGAVTTSNYANWVQQKPGKAPKALIGGTNKRAPGVPSRFSGSLIGDKATLTISSLQPEDFATYYCALWYSNLWVFGQGTKVEIKGGSGGSQVQLVQSGAEVKKPGASVKVSCKASGYTFTSYYMHWVRQAPGQGLEWMGIINPSGGSTSYAQKFQGRVTMTRDTSTSTVYMELSSLRSEDTAVYYCARDVVPAAIDYYGMDVWGQGTTVTVSSGGSGQSVLTQPPSASGTPGQRVTISCSGSSSNIGSNTVNWYQQLPGTAPKLLIYSDNQRPSGVPDRFSGSKSGSSASLAISGLQSDDEADYYCATWDDSLNGAVFGGGTKLTVLGGSGGSEVQLVESGGGLVQPGGSLRLSCAASGFTFSTYAMNWVRQAPGKGLEWVGRIRSKYNNYATYYADSVKDRFTISRDDSKNSLYLQMNSLKTEDTAVYYCARHGNFGNSYVSYFAYWGQGTLVTVSSAAAGSHHHHHH

Source: patent publication US20210024654A1 (AMPHIVENA THERAPEUTICS, published 2021)
